What was measured:
Experiment in all cases: peptide microarray
[1] = biological target: T1, human CD26-derived 13 mer peptide 68 (human)
T1 peptide: SYRITWTGKEDII
Procedure: (§1) The overnight incubation was followed by three washings with each of PBS buffer pH 7.5 and water. The microarrays were then scanned using ArrayWorx-Microarray Scanner.
(§2) The SPOT recognition software package ArrayPro was used for data analysis. The mean of signal intensities from 3 identical subarrays on each microarray image was used for data evaluation.

[2] = biological target: T2, human CD26-derived 13 mer peptide 35 (human)
T2 peptide: LEYNYVKQWRHSY
Procedure: as §1, §2

[3] = biological target: T3, human CD26-derived 13 mer peptide 56 (human)
T3 peptide: SPVGHKLAYVWNN
Procedure: as §1, §2

[4] = biological target: T4, human CD26-derived 13 mer peptide 21 (human)
T4 peptide: VFLENSTFDEFGH
Procedure: as §1, §2

[5] = biological target: T5, human CD26-derived 13 mer peptide 19 (human)
T5 peptide: GNSSVFLENSTFD
Procedure: as §1, §2

[6] = biological target: T6, human CD26-derived 13 mer peptide 48 (human)
T6 peptide: LITEERIPNNTQW
Procedure: as §1, §2

[7] = biological target: T7, human CD26-derived 13 mer peptide 41 (human)
T7 peptide: YTASYDIYDLNKR
Procedure: as §1, §2

[8] = biological target: T8, human CD26-derived 13 mer peptide 118 (human)
T8 peptide: ATSIQITAPASML
Procedure: as §1, §2

[9] = biological target: T9, human CD26-derived 13 mer peptide 46 (human)
T9 construct: also called NKRQL1TEERIPN
T9 peptide: NKRQLITEERIPN
Procedure: as §1, §2

[10] = biological target: T10, human CD26-derived 13 mer peptide 96 (human)
T10 peptide: YSFYSDESLQYPK
Procedure: as §1, §2

[11] = biological target: T11, human CD26-derived 13 mer peptide 132 (human)
T11 peptide: RISLQWLRRIQNY
Procedure: as §1, §2

[12] = biological target: T12, human CD26-derived 13 mer peptide 51 (human)
T12 peptide: IPNNTQWVTWSPV
Procedure: as §1, §2

[13] = biological target: T13, human CD26-derived 13 mer peptide 120 (human)
T13 peptide: QITAPASMLIGDH
Procedure: as §1, §2

[14] = biological target: T14, human CD26-derived 13 mer peptide 117 (human)
T14 peptide: TNATSIQITAPAS
Procedure: as §1, §2

[15] = biological target: T15, human CD26-derived 13 mer peptide 99 (human)
T15 peptide: ESLQYPKTVRVPY
Procedure: as §1, §2

[16] = biological target: T16, human CD26-derived 13 mer peptide 65 (human)
T16 peptide: IEPNLPSYRITWT
Procedure: as §1, §2

[17] = biological target: T17, human CD26-derived 13 mer peptide 70 (human)
T17 peptide: TWTGKEDIIYNGI
Procedure: as §1, §2

[18] = biological target: T18, human CD26-derived 13 mer peptide 127 (human)
T18 peptide: LCDVTWATQERIS
Procedure: as §1, §2

[19] = biological target: T19, human CD26-derived 13 mer peptide 38 (human)
T19 peptide: KQWRHSYTASYDI
Procedure: as §1, §2

[20] = biological target: T20, human CD26-derived 13 mer peptide 92 (human)
T20 peptide: DTEVPLIEYSFYS
Procedure: as §1, §2

[21] = biological target: T21, human CD26-derived 13 mer peptide 9 (human)
T21 peptide: SDHEYLYKQENNI
Procedure: as §1, §2

[22] = biological target: T22, human CD26-derived 13 mer peptide 104 (human)
T22 peptide: VPYPKAGAVNPTV
Procedure: as §1, §2

[23] = biological target: T23, human CD26-derived 13 mer peptide 82 (human)
T23 peptide: AYSALWWSPNGTF
Procedure: as §1, §2

[24] = biological target: T24, human CD26-derived 13 mer peptide 55 (human)
T24 peptide: TWSPVGHKLAYVW
Procedure: as §1, §2

[25] = biological target: T25, human CD26-derived 13 mer peptide 81 (human)
T25 peptide: FSAYSALWWSPNG
Procedure: as §1, §2

[26] = biological target: T26, human CD26-derived 13 mer peptide 74 (human)
T26 peptide: IYNGITDWVYEEE
Procedure: as §1, §2

[27] = biological target: T27, human CD26-derived 13 mer peptide 4 (human)
T27 peptide: RLKLYSLRWISDH
Procedure: as §1, §2

[28] = biological target: T28, human CD26-derived 13 mer peptide 8 (human)
T28 peptide: WISDHEYLYKQEN
Procedure: as §1, §2

[29] = biological target: T29, human CD26-derived 13 mer peptide 76 (human)
T29 peptide: ITDWVYEEEVFSA
Procedure: as §1, §2

[30] = biological target: T30, human CD26-derived 13 mer peptide 88 (human)
T30 peptide: FLAYAQFNDTEVP
Procedure: as §1, §2

[31] = biological target: T31, human CD26-derived 13 mer peptide 101 (human)
T31 peptide: YPKTVRVPYPKAG
Procedure: as §1, §2

[32] = biological target: T32, human CD26-derived 13 mer peptide 130 (human)
T32 peptide: ATQERISLQWLRR
Procedure: as §1, §2

[33] = biological target: T33, human CD26-derived 13 mer peptide 131 (human)
T33 peptide: QERISLQWLRRIQ
Procedure: as §1, §2

[34] = biological target: T34, human CD26-derived 13 mer peptide 108 (human)
T34 peptide: VNPTVKFFVVNTD
Procedure: as §1, §2

[35] = biological target: T35, human CD26-derived 13 mer peptide 66 (human)
T35 peptide: PNLPSYRITWTGK
Procedure: as §1, §2

[36] = biological target: T36, human CD26-derived 13 mer peptide 89 (human)
T36 peptide: AYAQFNDTEVPLI
Procedure: as §1, §2

[37] = biological target: T37, human CD26-derived 13 mer peptide 79 (human)
T37 peptide: EEEVFSAYSALWW
Procedure: as §1, §2

[38] = biological target: T38, human CD26-derived 13 mer peptide 22 (human)
T38 peptide: LENSTFDEFGHSI
Procedure: as §1, §2

[39] = biological target: T39, human CD26-derived 13 mer peptide 63 (human)
T39 peptide: IYVKIEPNLPSYR
Procedure: as §1, §2

[40] = biological target: T40, human CD26-derived 13 mer peptide 83 (human)
T40 peptide: SALWWSPNGTFLA
Procedure: as §1, §2

[41] = biological target: T41, human CD26-derived 13 mer peptide 111 (human)
T41 peptide: FFVVNTDSLSSVT
Procedure: as §1, §2

Mean Signal Value [1]: 0 | Mean Signal Value [2]: 84.7 | Mean Signal Value [3]: 11.7 | Mean Signal Value [4]: 0.197 | Mean Signal Value [5]: 0 | Mean Signal Value [6]: 12.1 | Mean Signal Value [7]: 0.0673 | Mean Signal Value [8]: 0 | Mean Signal Value [9]: 0 | Mean Signal Value [10]: 0.0144 | Mean Signal Value [11]: 113 | Mean Signal Value [12]: 0.856 | Mean Signal Value [13]: 0.0337 | Mean Signal Value [14]: 0.00962 | Mean Signal Value [15]: 0.0865 | Mean Signal Value [16]: 40.8 | Mean Signal Value [17]: 1 | Mean Signal Value [18]: 0.00962 | Mean Signal Value [19]: 4.77 | Mean Signal Value [20]: 11.9 | Mean Signal Value [21]: 0.0673 | Mean Signal Value [22]: 0.00481 | Mean Signal Value [23]: 67.8 | Mean Signal Value [24]: 124 | Mean Signal Value [25]: 35.4 | Mean Signal Value [26]: 0 | Mean Signal Value [27]: 51.3 | Mean Signal Value [28]: 0.736 | Mean Signal Value [29]: 0.0337 | Mean Signal Value [30]: 0 | Mean Signal Value [31]: 0.00481 | Mean Signal Value [32]: 4.3 | Mean Signal Value [33]: 5.25 | Mean Signal Value [34]: 1.33 | Mean Signal Value [35]: 0.111 | Mean Signal Value [36]: 0 | Mean Signal Value [37]: 96.4 | Mean Signal Value [38]: 0.0192 | Mean Signal Value [39]: 8.12 | Mean Signal Value [40]: 3.64 | Mean Signal Value [41]: 0
B1: rhuMAb 411 (antibody, human IgG1, kappa, V domains shown)
VH: EVQLVESGAGVKQPGGTLRLTCTASGFSLTTYGVHWVRQAPGKGLEWVGVIWGDGRTDYDAAFMSRVTISKDTSKSTVYLQMNSLRAEDTAVYYCMRNRHDWFDYWGQGTTVTVSS
VL: DILLTQSPSSLSATPGERATITCRASQGIRNNLNWYQQKPGQAPRLLIYYSSNLQSGVPSRFSGSGSGTDFTLTISRLQPEDVAAYYCQQSIKLPFTFGSGTKVEIKR
notes: also called X411

From patent publication US20070105771A1 (Y S THERAPEUTICS, published 2007)
